{"source": "patent US20030143656", "proteins": {"B1": {"name": "GST-PDK1 (wild type) (protein)", "chain": "MARTTSQLYDAVPIQSSVVLCSCPSPSMVRTQTESSTPPGIPGGSRQGPAMDGTAAEPRPGAGSLQHAQPPPQPRKKRPEDFKFGKILGEGSFSTVVLARELATSREYAIKILEKRHIIKENKVPYVTRERDVMSRLDHPFFVKLYFTFQDDEKLYFGLSYAKNGELLKYIRKIGSFDETCTRFYTAEIVSALEYLHGKGIIHRDLKPENILLNEDMHIQITDFGTAKVLSPESKQARANSFVGTAQYVSPELLTEKSACKSSDLWALGCIIYQLVAGLPPFRAGNEYLIFQKIIKLEYDFPEKFFPKARDLVEKLLVLDATKRLGCEEMEGYGPLKAHPFFESVTWENLHQQTPPKLTAYLPAMSEDDEDCYGNYDNLLSQFGCMQVSSSSSSHSLSASDTGLPQRSGSNIEQYIHDLDSNSFELDLQFSEDEKRLLLEKQAGGNPWHQFVENNLILKMGPVDKRKGLFARRRQLLLTEGPHLYYVDPVNKVLKGEIPWSQELRPEAKNFKTFFVHTPNRTYYLMDPSGNAHKWCRKIQEVWRQRYQSHPDAAVQ"}, "B2": {"name": "GST-PDK1 L155E (protein)", "chain": "B1 chain with L155E"}, "B3": {"name": "His-PDK1 (protein)", "chain": "DGTAAEPRPGAGSLQHAQPPPQPRKKRPEDFKFGKILGEGSFSTVVLARELATSREYAIKILEKRHIIKENKVPYVTRERDVMSRLDHPFFVKLYFTFQDDEKLYFGLSYAKNGELLKYIRKIGSFDETCTRFYTAEIVSALEYLHGKGIIHRDLKPENILLNEDMHIQITDFGTAKVLSPESKQARANSFVGTAQYVSPELLTEKSACKSSDLWALGCIIYQLVAGLPPFRAGNEYLIFQKIIKLEYDFPEKFFPKARDLVEKLLVLDATKRLGCEEMEGYGPLKAHPFFESVTWENLHQQTPPKLTAYLPAMSEDDEDCYGNYDNLLSQFGCMQVSSSSSSHSLSASDTGLPQRSGSNIEQYIHDLDSNSFELDLQFSEDEKRLLLEKQAGGNPWHQFVENNLILKMGPVDKRKGLFARRRQLLLTEGPHLYYVDPVNKVLKGEIPWSQELRPEAKNFKTFFVHTPNRTYYLMDPSGNAHKWCRKIQEVWRQRYQSHPDAAVQ"}}, "key": {"[1]": {"target": "T1, SGK1[F421A], O00141", "T1 chain": "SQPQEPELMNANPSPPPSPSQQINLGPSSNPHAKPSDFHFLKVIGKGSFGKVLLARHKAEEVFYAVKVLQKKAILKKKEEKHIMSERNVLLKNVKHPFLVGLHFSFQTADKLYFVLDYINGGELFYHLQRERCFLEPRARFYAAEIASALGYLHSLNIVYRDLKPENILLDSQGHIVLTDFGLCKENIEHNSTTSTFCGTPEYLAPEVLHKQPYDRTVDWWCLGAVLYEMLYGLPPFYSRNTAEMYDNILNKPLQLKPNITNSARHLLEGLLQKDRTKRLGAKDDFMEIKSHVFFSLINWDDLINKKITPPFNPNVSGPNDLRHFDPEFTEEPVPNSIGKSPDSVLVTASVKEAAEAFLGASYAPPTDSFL"}, "[2]": {"target": "GST-S6K1-T2[F411A], P23443", "sequence (P23443 1-421 F411A)": "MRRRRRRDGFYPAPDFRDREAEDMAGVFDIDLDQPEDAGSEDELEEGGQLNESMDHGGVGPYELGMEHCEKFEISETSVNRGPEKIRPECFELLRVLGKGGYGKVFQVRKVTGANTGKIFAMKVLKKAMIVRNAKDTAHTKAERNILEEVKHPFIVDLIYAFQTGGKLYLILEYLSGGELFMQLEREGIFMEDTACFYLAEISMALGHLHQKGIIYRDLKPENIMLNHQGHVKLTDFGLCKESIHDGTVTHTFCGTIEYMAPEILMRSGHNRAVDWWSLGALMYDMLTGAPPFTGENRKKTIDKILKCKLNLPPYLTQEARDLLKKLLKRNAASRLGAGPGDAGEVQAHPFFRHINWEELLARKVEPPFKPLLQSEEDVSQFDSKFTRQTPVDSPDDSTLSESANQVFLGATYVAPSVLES"}, "[3]": {"target": "T2, D978A-PIFtide", "T2 chain": "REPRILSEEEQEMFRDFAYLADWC"}, "[4]": {"target": "T3, GST-?PH-PKBα[S473D], P31749", "T3 chain": "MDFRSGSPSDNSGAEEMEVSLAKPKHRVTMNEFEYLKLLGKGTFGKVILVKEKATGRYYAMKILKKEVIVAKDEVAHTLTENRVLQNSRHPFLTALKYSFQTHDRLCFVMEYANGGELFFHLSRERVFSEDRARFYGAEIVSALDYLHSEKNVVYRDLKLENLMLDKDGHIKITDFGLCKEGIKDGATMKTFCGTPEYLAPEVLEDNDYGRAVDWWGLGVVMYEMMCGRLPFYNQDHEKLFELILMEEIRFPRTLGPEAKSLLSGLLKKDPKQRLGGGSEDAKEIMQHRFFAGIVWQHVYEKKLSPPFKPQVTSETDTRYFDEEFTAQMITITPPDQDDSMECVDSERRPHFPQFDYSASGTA"}, "[5]": {"target": "T4, GST-?PH-PKBα, P31749", "T4 chain": "T3 chain with D356S"}, "[6]": {"target": "GST-FL-PKB 473D, P31749", "sequence (P31749 other isoform, or with tags, fused parts or gaps)": "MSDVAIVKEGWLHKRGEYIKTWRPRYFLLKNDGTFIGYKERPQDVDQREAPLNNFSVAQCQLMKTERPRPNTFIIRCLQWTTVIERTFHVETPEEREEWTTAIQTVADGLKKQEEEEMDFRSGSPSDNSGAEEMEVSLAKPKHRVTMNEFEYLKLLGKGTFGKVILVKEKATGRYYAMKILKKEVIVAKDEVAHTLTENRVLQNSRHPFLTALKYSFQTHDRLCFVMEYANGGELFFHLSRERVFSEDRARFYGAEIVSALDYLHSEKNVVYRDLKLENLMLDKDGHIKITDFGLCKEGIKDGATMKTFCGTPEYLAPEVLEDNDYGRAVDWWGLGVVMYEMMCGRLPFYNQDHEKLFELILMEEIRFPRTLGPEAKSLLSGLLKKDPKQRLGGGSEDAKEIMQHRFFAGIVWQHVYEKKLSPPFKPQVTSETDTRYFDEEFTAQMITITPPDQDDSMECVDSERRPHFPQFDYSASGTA"}, "[7]": {"target": "T5, GST-?PH-PKBα[F472A], P31749", "T5 chain": "T3 chain with F355A, D356S"}, "[8]": {"target": "T6, GST-SGK1 (lacking the N-terminal 60 amino acids), O00141", "T6 chain": "T1 chain with A361F"}, "[9]": {"target": "412E-p70 S6K-T2 (His-tagged, insect cells), P23443", "sequence (P23443 whole entry, looked up)": "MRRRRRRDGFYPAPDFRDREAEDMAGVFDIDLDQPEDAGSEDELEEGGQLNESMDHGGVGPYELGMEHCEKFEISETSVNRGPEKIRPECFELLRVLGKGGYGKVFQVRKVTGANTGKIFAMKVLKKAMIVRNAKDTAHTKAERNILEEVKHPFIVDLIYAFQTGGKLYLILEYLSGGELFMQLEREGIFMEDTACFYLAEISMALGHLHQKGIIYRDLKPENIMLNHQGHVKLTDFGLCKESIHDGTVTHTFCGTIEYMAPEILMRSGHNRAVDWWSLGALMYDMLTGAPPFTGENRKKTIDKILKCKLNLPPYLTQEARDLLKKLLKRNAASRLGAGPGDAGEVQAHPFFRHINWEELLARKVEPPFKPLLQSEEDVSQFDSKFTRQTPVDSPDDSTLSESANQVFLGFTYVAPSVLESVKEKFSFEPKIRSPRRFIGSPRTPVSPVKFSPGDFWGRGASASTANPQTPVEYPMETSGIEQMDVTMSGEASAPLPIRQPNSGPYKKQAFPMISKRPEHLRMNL"}, "[10]": {"target": "GST-PKBα[F472A], P31749", "sequence (P31749 whole entry F472A)": "as the sequence (P31749 other isoform, or with tags, fused parts or gaps) above, with F472A, D473S counted along it"}, "[11]": {"target": "GST-FL-PKB, P31749"}, "[12]": {"target": "GST-SGK1[T422D] (lacking the N-terminal 60 amino acids), O00141"}, "[13]": {"target": "p70 S6K-T2 (His-tagged, insect cells), P23443", "sequence (P23443 whole entry, looked up)": "as the sequence (P23443 whole entry, looked up) above"}, "[14]": {"target": "T7, PIFtide", "T7 chain": "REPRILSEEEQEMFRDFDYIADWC"}, "[15]": {"target": "PDKtide", "sequence (chain, as listed by the source)": "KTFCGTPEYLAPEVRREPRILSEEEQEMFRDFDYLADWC"}, "[16]": {"target": "T8, T308tide", "T8 chain": "KTFCGTPEYLAPEVRR"}}, "note": "Changes are numbered by the printed parent chain. In names and notes the source's numbering stands."}
{"protein": "B1", "values": [{"measurement": "rate of phosphorylation by PDK1 compared to the wild type enzyme", "setting": "[1]", "value": "markedly reduced"}, {"measurement": "rate of phosphorylation by PDK1 compared to the wild type enzyme", "setting": "[2]", "value": "markedly reduced"}, {"measurement": "concentration needed to obtain 50% activation of PDK1 (T308tide as substrate)", "setting": "[3]", "value": 1.1, "unit": "µM for D978A-PIFtide"}, {"measurement": "relative phosphorylation of the substrate by PDK1-wt, +PIFtide (relative, PKB[S473D]=100)", "setting": "[4]", "value": 0.2}, {"measurement": "relative phosphorylation of the substrate by PDK1-wt, no PIFtide (relative, PKB[S473D]=100)", "setting": "[4]", "value": 0.9}, {"measurement": "relative phosphorylation of the substrate by PDK1-wt, +PIFtide (relative, PKB[S473D]=100)", "setting": "[5]", "value": 0.25}, {"measurement": "relative phosphorylation of the substrate by PDK1-wt, no PIFtide (relative, PKB[S473D]=100)", "setting": "[5]", "value": 0.4}, {"measurement": "relative phosphorylation of the substrate by PDK1-wt, +PIFtide (relative, PKB[S473D]=100)", "setting": "[6]", "value": 85.4}, {"measurement": "relative phosphorylation of the substrate by PDK1-wt, no PIFtide (relative, PKB[S473D]=100)", "setting": "[6]", "value": 100}, {"measurement": "rate of phosphorylation by PDK1 compared to the wild type enzyme", "setting": "[7]", "value": "markedly reduced"}, {"measurement": "relative phosphorylation of the substrate by PDK1-wt, +PIFtide (relative, PKB[S473D]=100)", "setting": "[8]", "value": 3.8}, {"measurement": "relative phosphorylation of the substrate by PDK1-wt, no PIFtide (relative, PKB[S473D]=100)", "setting": "[8]", "value": 8}, {"measurement": "relative phosphorylation of the substrate by PDK1-wt, +PIFtide (relative, PKB[S473D]=100)", "setting": "[9]", "value": 7.4}, {"measurement": "relative phosphorylation of the substrate by PDK1-wt, no PIFtide (relative, PKB[S473D]=100)", "setting": "[9]", "value": 54}, {"measurement": "rate of phosphorylation by PDK1 compared to the wild type enzyme", "setting": "[10]", "value": "PKB[F472A] was phosphorylated at a similar rate to the wild type PKB"}, {"measurement": "relative phosphorylation of the substrate by PDK1-wt, +PIFtide (relative, PKB[S473D]=100)", "setting": "[11]", "value": 19.3}, {"measurement": "relative phosphorylation of the substrate by PDK1-wt, no PIFtide (relative, PKB[S473D]=100)", "setting": "[11]", "value": 28}, {"measurement": "relative phosphorylation of the substrate by PDK1-wt, +PIFtide (relative, PKB[S473D]=100)", "setting": "[12]", "value": 9.6}, {"measurement": "relative phosphorylation of the substrate by PDK1-wt, no PIFtide (relative, PKB[S473D]=100)", "setting": "[12]", "value": 71}, {"measurement": "relative phosphorylation of the substrate by PDK1-wt, +PIFtide (relative, PKB[S473D]=100)", "setting": "[13]", "value": 0.58}, {"measurement": "relative phosphorylation of the substrate by PDK1-wt, no PIFtide (relative, PKB[S473D]=100)", "setting": "[13]", "value": 10.4}, {"measurement": "concentration needed to obtain 50% activation of PDK1 (T308tide as substrate)", "setting": "[14]", "value": 0.14, "unit": "µM for wt-PIFtide"}, {"measurement": "phosphorylation of p70 S6K at Thr412 by PDK1 (T412-P immunoblot)", "setting": "[14]", "value": "The 24 residue PIF peptide prevented PDK1 from phosphorylating the p70 S6K at Thr412"}]}
{"protein": "B2", "values": [{"measurement": "relative phosphorylation of the substrate by PDK1-L155E, +PIFtide (relative, PKB[S473D]=100)", "setting": "[4]", "value": 0.15}, {"measurement": "relative phosphorylation of the substrate by PDK1-L155E, no PIFtide (relative, PKB[S473D]=100)", "setting": "[4]", "value": 0.18}, {"measurement": "relative phosphorylation of the substrate by PDK1-L155E, +PIFtide (relative, PKB[S473D]=100)", "setting": "[5]", "value": 0.25}, {"measurement": "relative phosphorylation of the substrate by PDK1-L155E, no PIFtide (relative, PKB[S473D]=100)", "setting": "[5]", "value": 0.23}, {"measurement": "relative phosphorylation of the substrate by PDK1-L155E, +PIFtide (relative, PKB[S473D]=100)", "setting": "[6]", "value": 162}, {"measurement": "relative phosphorylation of the substrate by PDK1-L155E, no PIFtide (relative, PKB[S473D]=100)", "setting": "[6]", "value": 178}, {"measurement": "relative phosphorylation of the substrate by PDK1-L155E, +PIFtide (relative, PKB[S473D]=100)", "setting": "[8]", "value": 2.4}, {"measurement": "relative phosphorylation of the substrate by PDK1-L155E, no PIFtide (relative, PKB[S473D]=100)", "setting": "[8]", "value": 3.3}, {"measurement": "relative phosphorylation of the substrate by PDK1-L155E, +PIFtide (relative, PKB[S473D]=100)", "setting": "[9]", "value": 0.108}, {"measurement": "relative phosphorylation of the substrate by PDK1-L155E, no PIFtide (relative, PKB[S473D]=100)", "setting": "[9]", "value": 0.5}, {"measurement": "relative phosphorylation of the substrate by PDK1-L155E, +PIFtide (relative, PKB[S473D]=100)", "setting": "[11]", "value": 35}, {"measurement": "relative phosphorylation of the substrate by PDK1-L155E, no PIFtide (relative, PKB[S473D]=100)", "setting": "[11]", "value": 35}, {"measurement": "relative phosphorylation of the substrate by PDK1-L155E, +PIFtide (relative, PKB[S473D]=100)", "setting": "[12]", "value": 3.4}, {"measurement": "relative phosphorylation of the substrate by PDK1-L155E, no PIFtide (relative, PKB[S473D]=100)", "setting": "[12]", "value": 3.5}, {"measurement": "relative phosphorylation of the substrate by PDK1-L155E, +PIFtide (relative, PKB[S473D]=100)", "setting": "[13]", "value": 0.27}, {"measurement": "relative phosphorylation of the substrate by PDK1-L155E, no PIFtide (relative, PKB[S473D]=100)", "setting": "[13]", "value": 0.6}]}
{"protein": "B3", "values": [{"measurement": "rate of phosphorylation at 100 µM, against T308tide", "setting": "[15]", "value": "phosphorylated at a rate over 100-fold greater than that using T308tide"}, {"measurement": "Km of PDK1 for the peptide substrate", "setting": "[16]", "value": "the Km was very high (>10 mM)"}]}
